Residue numbers refer to the chain shown, from its start.
Columns and labels:
[1] = molecular target: T1, Cynomolgus monkey CD3εγ-Fc heterodimer (cynomolgus monkey); assay: ELISA on coated cynomolgus monkey CD3εγ protein (panel 'Monkey CD3εγ dimer')
T1 construct: also called cynomolgus monkey CD3εγ protein
T1 chain 1: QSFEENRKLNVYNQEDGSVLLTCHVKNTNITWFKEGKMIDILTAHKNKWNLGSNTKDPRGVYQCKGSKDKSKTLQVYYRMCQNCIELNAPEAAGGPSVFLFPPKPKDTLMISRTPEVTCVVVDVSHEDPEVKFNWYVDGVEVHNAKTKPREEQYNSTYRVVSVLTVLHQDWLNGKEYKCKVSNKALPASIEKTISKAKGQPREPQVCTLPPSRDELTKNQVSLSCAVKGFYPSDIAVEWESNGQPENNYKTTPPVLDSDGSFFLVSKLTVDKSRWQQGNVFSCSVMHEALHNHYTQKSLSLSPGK
T1 chain 2: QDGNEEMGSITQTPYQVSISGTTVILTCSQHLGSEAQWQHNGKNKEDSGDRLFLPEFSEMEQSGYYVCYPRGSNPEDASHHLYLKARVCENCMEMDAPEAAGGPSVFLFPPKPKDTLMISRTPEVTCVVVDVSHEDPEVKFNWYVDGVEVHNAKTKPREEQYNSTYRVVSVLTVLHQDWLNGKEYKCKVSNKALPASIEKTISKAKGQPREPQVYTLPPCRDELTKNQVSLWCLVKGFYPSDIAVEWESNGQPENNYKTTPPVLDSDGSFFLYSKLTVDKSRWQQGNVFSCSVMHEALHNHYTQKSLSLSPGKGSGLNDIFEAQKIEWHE
Method: Human CD3εγ protein and cynomolgus monkey CD3εγ protein were coated separately overnight at 4° C. After blocking with 2% skim milk, different dilutions of CD3 antibody were added to each well and incubated for 1 hour. After the secondary antibody was developed by adding HPR-labeled goat anti-human IgG Fc and TMB solution, the reaction was stopped with concentrated sulfuric acid, and the absorbance was read at 450 nm.

[2] = molecular target: T2, human CD3 on T cells (Jurkat cells; human peripheral blood CD4+ and CD8+ T-cells) (human, UniProt P07766 23-207); assay: flow cytometry on Jurkat cells
T2 construct: whole, on cells; the other chains of the complex are present on the cells; also called CD4T; CD4 + T
Method: The cells were adjusted to 5×10^5 cells/mL with 4% calf serum, 100 μL/well was added to 96-well U-plate, 300 g was centrifuged to removed the supernatant, 100 μL/well of gradient diluted antibody (initial concentration: 1800 nM, 3-fold dilution, 10 gradients) was added and incubated at 4° C. for 60 min. […] 50 μL/well PI was added after washing once, incubated for 5 min, and detected with flow cytometer (BD C6).

human BCMA on cells [3] = molecular target: T3, human BCMA on cells (human, UniProt Q02223 1-184); assay: flow cytometry on NCI-H929 cells
T3 construct: whole, on cells; also called Human BCMA-CHO; CHO-hBCMA
T3 sequence (looked up): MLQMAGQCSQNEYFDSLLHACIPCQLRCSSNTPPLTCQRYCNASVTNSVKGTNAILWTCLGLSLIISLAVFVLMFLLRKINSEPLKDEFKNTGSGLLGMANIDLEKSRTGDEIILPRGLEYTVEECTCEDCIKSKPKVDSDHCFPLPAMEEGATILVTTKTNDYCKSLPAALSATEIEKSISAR
Method: (§1) 50 μL/well Alexa Fluro647 labeled goat anti-human IgG Fc (1: 300 dilution) were added to the secondary antibody, incubated on ice for 20 min, added with 50 μL/well PI solution (1: 300) after washing once, incubated for 5 min, and flow cytometer was used to make detection.

human BCMA on cells [4] = molecular target: T3, human BCMA on cells; assay: flow cytometry on RPMI-8226 cells
Method: as §1

human BCMA on cells [5] = molecular target: T3, human BCMA on cells; assay: flow cytometry on CHO-human BCMA cells
Method: as §1

[6] = molecular target: T2, human CD3 on T cells (Jurkat cells; …); assay: flow cytometry on human peripheral blood CD4+ T-cells
Method: (§2) Fresh human peripheral blood was taken and PBMC was isolated by Ficoll. Paque Plu (GE, 17-1440-03). PBMC was adjusted to 5×10⁵ cells/mL with 4% calf serum (Hyclone, SH30626.06), 100 μL/well was added to a 96-well U-plate, the supernatant was centrifuged off and 100 μL of gradient diluted antibody (with starting concentration of 1800 nM, 3-fold dilution, 10 gradients) was added to each well and incubated for 60 min at 4° C. 50 μL/well of Alexa Fluro647 labeled goat anti-human IgG Fc (1: 300 dilution) was added to the secondary antibody, with ice bath for 20 min, and 50 μL/well PI added after washing once, incubated for 5 min, and flow cytometer (BD C6) was used for detection. The control antibody REGN5458 was synthesized and prepared according to US20200024356.

[7] = molecular target: T2, human CD3 on T cells (Jurkat cells; …); assay: flow cytometry on human peripheral blood CD8+ T-cells
Method: as §2

[8] = molecular target: T4, human CD3εγ-Fc heterodimer (human); assay: SPR (Biacore T200), antigen amine-coupled to CM5 chip, antibody as analyte, 1:1 model
T4 construct: also called human CD3εγ protein; human CD3εγ recombinant protein
T4 chain 1: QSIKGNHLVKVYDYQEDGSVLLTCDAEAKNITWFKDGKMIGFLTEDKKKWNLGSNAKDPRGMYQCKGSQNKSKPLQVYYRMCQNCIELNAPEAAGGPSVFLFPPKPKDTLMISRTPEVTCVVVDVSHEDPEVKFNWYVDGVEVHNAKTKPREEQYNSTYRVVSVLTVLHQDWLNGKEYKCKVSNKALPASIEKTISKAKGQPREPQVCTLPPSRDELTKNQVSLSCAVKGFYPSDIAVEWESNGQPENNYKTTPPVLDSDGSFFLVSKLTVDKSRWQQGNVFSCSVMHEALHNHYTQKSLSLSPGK
T4 chain 2: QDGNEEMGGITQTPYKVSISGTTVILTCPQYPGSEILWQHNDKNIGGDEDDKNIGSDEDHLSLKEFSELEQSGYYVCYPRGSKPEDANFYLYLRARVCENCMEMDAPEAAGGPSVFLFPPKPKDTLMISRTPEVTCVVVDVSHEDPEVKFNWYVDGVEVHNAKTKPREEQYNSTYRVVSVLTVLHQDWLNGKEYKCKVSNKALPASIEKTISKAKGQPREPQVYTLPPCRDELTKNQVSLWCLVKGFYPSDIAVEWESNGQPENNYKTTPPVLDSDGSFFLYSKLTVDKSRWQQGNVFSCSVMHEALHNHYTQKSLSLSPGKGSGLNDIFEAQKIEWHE
Method: (§3) 10 μg/mL human or cynomolgus monkey BCMA or CD3εγ recombinant antigen was bound to a CM5 chip (GE healthcare) by amino conjugating, while the amount of antigen bound was controlled to approximately 200 RU. After baseline plateau, gradient diluted antibodies (7 gradients of 2-fold dilutions from 10 μg/mL) were flowed through the chip at a flow rate of 30 μL/min for a binding time of 350 seconds and a dissociation time of 600 seconds. Kinetic constants were fitted using Biacore T200 evaluation software with a 1: 1 binding model.

[9] = molecular target: T1, Cynomolgus monkey CD3εγ-Fc heterodimer; assay: as above
Method: as §3

[10] = molecular target: T5, human BCMA recombinant antigen (human, UniProt Q02223 1-54, limits assumed); assay: as above
T5 sequence (looked up): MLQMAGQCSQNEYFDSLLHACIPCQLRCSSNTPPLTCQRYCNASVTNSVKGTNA
Method: as §3

[11] = molecular target: cynomolgus monkey BCMA recombinant antigen (cynomolgus monkey, UniProt A0A2K5UD97 1-53); assay: as above
cynomolgus monkey BCMA recombinant antigen, sequence (A0A2K5UD97 entry or part of it): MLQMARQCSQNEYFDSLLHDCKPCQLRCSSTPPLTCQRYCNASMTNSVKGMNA
Method: as §3

[12] = molecular target: T2, human CD3 on T cells (Jurkat cells; …); assay: flow cytometry on human peripheral blood CD4+ T cells
[13] = molecular target: T2, human CD3 on T cells (Jurkat cells; …); assay: flow cytometry on human peripheral blood CD8+ T cells

B1: aCD3-hVH9/VL2 (antibody, human IgG4, V domains shown)
VH: EVQLVESGGGLVQPGGSLRLSCAASGFTFNTYAMNWVRKAPGKGLEWVGRIRSKYNNYATYYADSVKDRFTISRDDSKNSLYLQMNSLKTEDTAVYYCVRHGNFGNSYVSWFAYWGQGTLVTVSS
VL: QAVVTQEPSLTVSPGGTVTLTCRSSTGAVTTSNYANWVQEKPGQAPRGLIGGTNKRAPWTPARFSGSLLGGKAALTLSGAQPEDEAEYYCALWYSNLWVFGGGTKLTVL
notes: also called humanized anti-CD3 antibody hVH9/VL2
B1 was tested, and the “EC50 (read off the curve)” value [1] was roughly 0.04 ng/mL.

B2: aCD3-hVH9/VL5 (antibody, human IgG4, V domains shown)
VH: B1 VH
VL: B1 VL with L77I, S78T, P82A, A91V
notes: also called humanized anti-CD3 antibody hVH9/VL5
For B2, the “EC50 (read off the curve)” value [1] was roughly 0.06 ng/mL.

B3: BCMA×CD3 κλ006 (bispecific antibody, human IgG4 S228P, kappa, lambda)
light 1: DIVLTQSPASLAVSPGQRATITCRASKSVTTSGYSYIHWYQKKPGQPPKLLIYLASDLEAGVPARFSGSGSGTDFTLTINPVEAEDTANYYCQHSRELPWTFGQGTKVEIKRTVAAPSVFIFPPSDEQLKSGTASVVCLLNNFYPREAKVQWKVDNALQSGNSQESVTEQDSKDSTYSLSSTLTLSKADYEKHKVYACEVTHQGLSSPVTKSFNRGEC
heavy 1: QVQLVQSGSELKKPGASVKVSCKASGYIFTNFGMNWVREAPGQGLEWMGWINTYTGEQIYADGFTGRFVFSLDTSASTAYLQISSLKAEDTAVYFCARGEIYYGYDVGFVYWGQGTLVTVSSASTKGPSVFPLAPCSRSTSESTAALGCLVKDYFPEPVTVSWNSGALTSGVHTFPAVLQSSGLYSLSSVVTVPSSSLGTKTYTCNVDHKPSNTKVDKRVESKYGPPCPPCPAPEFEGGPSVFLFPPKPKDTLMISRTPEVTCVVVDVSQEDPEVQFNWYVDGVEVHNAKTKPREEQFNSTYRVVSVLTVLHQDWLNGKEYKCKVSNKGLASSIEKTISKAKGQPREPQVCTLPPSQEEMTKNQVSLSCAVKGFYPSDIAVEWESNGQPENNYKTTPPVLDSDGSFFLVSKLTVDKSRWQEGNVFSCSVMHEALHNHYTQKSLSLSLGK
light 2: QAVVTQEPSLTVSPGGTVTLTCRSSTGAVTTSNYANWVQEKPGQAPRGLIGGTNKRAPWTPARFSGSLLGGKAALTITGAQAEDEAEYYCVLWYSNLWVFGGGTKLTVLGQPKAAPSVTLFPPSSEELQANKATLVCLISDFYPGAVTVAWKADSSPVKAGVETTTPSKQSNNKYAASSYLSLTPEQWKSHRSYSCQVTHEGSTVEKTVAPTECS
heavy 2: EVQLVESGGGLVQPGGSLRLSCAASGFTFNTYAMNWVRKAPGKGLEWVGRIRSKYNNYATYYADSVKDRFTISRDDSKNSLYLQMNSLKTEDTAVYYCVRHGNFGNSYVSWFAYWGQGTLVTVSSASTKGPSVFPLAPCSRSTSESTAALGCLVKDYFPEPVTVSWNSGALTSGVHTFPAVLQSSGLYSLSSVVTVPSSSLGTKTYTCNVDHKPSNTKVDKRVESKYGPPCPPCPAPEFEGGPSVFLFPPKPKDTLMISRTPEVTCVVVDVSQEDPEVQFNWYVDGVEVHNAKTKPREEQFNSTYRVVSVLTVLHQDWLNGKEYKCKVSNKGLASSIEKTISKAKGQPREPQVYTLPPCQEEMTKNQVSLWCLVKGFYPSDIAVEWESNGQPENNYKTTPPVLDSDGSFFLYSKLTVDKSRWQEGNVFSCSVMHEALHNHYTQKSLSLSLGK
For B3, the EC50 [2] was 0.056 µM, the EC50 (human BCMA on cells [3]) was 0.032 µM and the EC50 (human BCMA on cells [4]) was 0.019 µM. It also gave an EC50 (human BCMA on cells [5]) of 0.016 µM, an EC50 [6] of 0.091 µM and an EC50 [7] of 0.093 µM. It also gave a Kd [8] of 0.027 µM, a Kd [9] of 0.033 µM and a Kd [10] of 0.0012 µM. It also gave a Kd [11] of 0.0001 µM.

B4: REGN5458 (antibody, V domains shown)
VH: EVQLVESGGGLVQPGRSLRLSCAASGFTFDDYSMHWVRQAPGKGLEWVSGISWNSGSKGYADSVKGRFTISRDNAKNSLYLQMNSLRAEDTALYYCAKYGSGYGKFYHYGLDVWGQGTTVTVSS
VL: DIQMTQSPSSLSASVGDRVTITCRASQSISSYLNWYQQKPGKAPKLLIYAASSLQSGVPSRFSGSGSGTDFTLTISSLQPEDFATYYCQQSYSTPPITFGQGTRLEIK
With B4 the “EC50 (read off the curve)” value [12] was roughly 0.01 µM and the “EC50 (read off the curve)” value [13] was roughly 0.01 µM.

Source: US20240002540A1 (KEYMED BIOSCIENCES CHENGDU, published 2024)
